± gives the uncertainty stated by the source.
Assay: protein stability index of a GFP-peptide fusion (yeast GPS) (PSI 1-4); higher = more stable; sorted into four equal gates, so the index is relative within each strain
Conditions: ubr1∆
In short: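 Tiled 17-residue peptides from yeast proteins were fused downstream of GFP on a plasmid that also expresses Cherry, and the pooled library was carried in yeast. Mid-log cultures grown in leucine-free medium were sorted into four equal gates by GFP/Cherry fluorescence ratio. Plasmids from each gate were PCR-amplified and Illumina-sequenced, and reads were assigned to strains by barcodes. Each peptide's protein stability index is the sum, over gates, of the gate's read frequency multiplied by its gate number.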

Going from IEWAEHHRDSNFPDEDD [SKP1] to IFGGAGGVPTTSFGQPQ [YOR098C/NUP1], the protein stability index falls from 3.33 ± 0.057 to 1.4 ± 0.053.

Going from IFLHSLPVKEFQIIDTL [RPS2] to IFQAKRNSNPENTVGLI [RPN10], the protein stability index rises from 2.49 ± 0.061 to 3.21 ± 0.11.

First: IGGSDAAFEKRYRVDLL [RPO21]
Second: IGGSLARIALRHLEKEG [RPS25A]
The protein stability index of the first is higher: 3.32 ± 0.053 for the first, 2.51 ± 0.06 for the second.

Compared with IGIAGAHRVRDLMDEEL [SKI6], IGISIVGRFSTISSADF [ECM29] is lower in protein stability index: 3.07 ± 0.13 for the first, 2.26 ± 0.19 for the second.

First: IGLPRHSLAYLLENFAN [RRP6]
Second: IGSNGSGKSNFFAAIRF [SMC3]
The protein stability index of the first is lower: 1.87 ± 0.025 for the first, 3.05 ± 0.039 for the second.

Going from IGSQRGRRLSMLASQAN [DSN1] to IHGQDFQFFPKELDALQ [ISW2], the protein stability index rises from 2.18 ± 0.047 to 2.78 ± 0.041.

First: IHLYMLTFHTLKKANII [YLR018C/POM34]
Second: IHQNAGRLLRAMFEICL [BRR2]
The protein stability index of the first is lower: 1.09 ± 0.042 for the first, 2.83 ± 0.048 for the second.

First: IHSKSMSVERGIRWELI [RPT1]
Second: IHSLIPVAKWFVKFITY [SIN4]
The protein stability index of the first is higher: 3.04 ± 0.063 for the first, 2.79 ± 0.04 for the second.

Going from IHSMNENPTPEKGNAKM [SIR3] to IHVLEQDGGIMGSLING [SKI6], the protein stability index rises from 2.87 ± 0.048 to 3.18 ± 0.066.

IIELPNEKFEIELLSLD [SRB4] and IIGKTTPISPDEEELGQ [RPB2] are within error of each other in protein stability index: 2.68 ± 0.048 for the first, 2.98 ± 0.29 for the second.

First: IIGPNGSGKSNMMDAIS [SMC1]
Second: IIHFHSHPEKRMIPPRM [SSN3]
The protein stability index of the first is higher: 3.28 ± 0.05 for the first, 3.13 ± 0.049 for the second.

Going from IIKENVKVARLAGKYIP [FAS1] to IINKVLDYQETYVEELF [YJL039C/NUP192], the protein stability index rises from 1.82 ± 0.1 to 2.6 ± 0.075.

Going from IINPHAIPSRMTVAHLI [RPB2] to IIVFGYPESISNELIEH [YDL088C/ASM4], the protein stability index rises from 2.1 ± 0.046 to 2.75 ± 0.054.

Compared with IKETKENDEEFYKNKYS [RPN2], IKFFWNNTHVGRQFCNR [YLR018C/POM34] is higher in protein stability index: 1.51 ± 0.21 for the first, 1.9 ± 0.1 for the second.

Compared with IKGSKLSLGEAFKKIDA [COR1], IKIVYALTTIKGVGRRY [RPS18A] is lower in protein stability index: 2.64 ± 0.093 for the first, 1.61 ± 0.075 for the second.

Going from IKVPTYIRKLISSGLLY [SRB8] to ILAMTYSENGKHDSLRY [RPN1], the protein stability index rises from 1.2 ± 0.067 to 2.62 ± 0.29.

Compared with ILDIVINNPVNLTIHFG [FAS1], ILECDLLICIGTSLKVA [SIR2] is lower in protein stability index: 3.02 ± 0.075 for the first, 1.73 ± 0.05 for the second.

Compared with ILEDFRVIKDFKKLNSK [YMR153W/NUP53], ILEEKTDLHLPKKEYDD [NSL1] is lower in protein stability index: 3.29 ± 0.063 for the first, 2.66 ± 0.061 for the second.

First: ILGIAGEDFAVLAGDTR [PRE7]
Second: ILGKNFDSVIVENLTVA [SMC1]
The protein stability index of the first is higher: 3.64 ± 0.076 for the first, 2.19 ± 0.054 for the second.

Going from ILKWVQWSRIVLQNVFK [MED1] to ILLAGRFRGKRVVYLKH [RPL6A], the protein stability index falls from 3.07 ± 0.068 to 2.12 ± 0.056.

Compared with ILNAKYTKETYQSRGID [RPN6], ILNHIGQLTGIYRYKYK [PRP8] is lower in protein stability index: 2.8 ± 0.056 for the first, 2.03 ± 0.068 for the second.

Going from ILPTDGSAEFNVKYRAV [RPB7] to ILSSLYLLSIWVKKFKW [CYT1], the protein stability index falls from 3.48 ± 0.22 to 1.3 ± 0.055.

First: ILSSVNRTVLLKIFKIF [SRB8]
Second: ILSTTLDPTDDEGHVLK [SIN4]
The protein stability index of the first is lower: 1.13 ± 0.093 for the first, 3 ± 0.12 for the second.

Compared with ILTDLVNYRHFKAMEDV [ITC1], ILTEHLGYPPISLVDDI [MTW1] is lower in protein stability index: 3.39 ± 0.063 for the first, 2.11 ± 0.042 for the second.

First: ILTSKVNAIKNEVKEWA [DSN1]
Second: ILYEIRALYTPFLLMEL [YDL116W/NUP84]
The protein stability index of the first is lower: 2.82 ± 0.08 for the first, 3.02 ± 0.062 for the second.

Compared with ILYYDVLFITPDIVGHE [BRR2], IMERIKSSLSLRDHALS [ITC1] is lower in protein stability index: 2.84 ± 0.057 for the first, 2.65 ± 0.06 for the second.

Going from IMKFQSLSDNDLAVCAT [ECM29] to IMVLDASIGQAAEQQSK [SRP54], the protein stability index rises from 2.77 ± 0.064 to 2.97 ± 0.13.

INDAGKAKKLIQSLPPT [RPL38] and INDFKKIGRENENENED [POP5] are within error of each other in protein stability index: 2.56 ± 0.03 for the first, 2.49 ± 0.27 for the second.

Compared with INDIRDDDIEKQEQEEK [YCG1], INLAMNESSLALEFVSL [SRB4] is lower in protein stability index: 3.12 ± 0.055 for the first, 1.92 ± 0.064 for the second.

First: INNLPPEKEASSATIVL [YCG1]
Second: INSDNQNIILRSTMMKF [RPN3]
The protein stability index of the first is lower: 2.52 ± 0.073 for the first, 2.9 ± 0.059 for the second.

Going from INVETVYDIMALEDEER [BRR2] to INVLTDQNPIQVVVDAI [RPS5], the protein stability index falls from 2.79 ± 0.067 to 2.05 ± 0.031.

Compared with IPFPDHNQSPRNTYQSA [RPB2], IPFQTLYRSIESGEFDF [YJL039C/NUP192] is lower in protein stability index: 2.78 ± 0.063 for the first, 1.99 ± 0.032 for the second.

Going from IPHFIDNNSSLNVSNTK [PRP8] to IPIAIVLKACGILSDLE [RET1], the protein stability index falls from 2.51 ± 0.06 to 2.02 ± 0.053.

Going from IPLDNYDDFIYLSDLKQ [PCI8] to IPPDQQRLIFAGKQLED [RPS31], the protein stability index rises from 2.62 ± 0.12 to 3.16 ± 0.035.

Going from IQKESTLHLVLRLRGGI [RPL40A] to IQMNNSLQNNLQNNINN [SNF11], the protein stability index rises from 2.54 ± 0.058 to 3.31 ± 0.064.

Going from IQRFFALHYLVPFIIAA [COB] to IQRTLMELLTQMDGFDN [RPT4], the protein stability index rises from 1.09 ± 0.036 to 3.23 ± 0.1.

First: IQTVVISLLALPHSPLW [YML031W/NDC1]
Second: IQVFEKPFLKKTQEYYT [CDC53]
The protein stability index of the first is lower: 2 ± 0.049 for the first, 2.57 ± 0.053 for the second.

IRDLEKLYDKTENDIKA [RPT4] and IRNIVEAAAVRDLSEAS [RPS26A] are within error of each other in protein stability index: 2.43 ± 0.22 for the first, 2.49 ± 0.077 for the second.

Compared with IRQDVNLGRAVFWEIQS [PRP8], ISFAIYSALNSTYLPKL [RRP42] is lower in protein stability index: 2.86 ± 0.04 for the first, 2.34 ± 0.039 for the second.

Compared with ISFLEPINLKFLQGESP [YMR129W/POM152], ISGNPPLLYNSLCTVWK [SRB5] is lower in protein stability index: 2.67 ± 0.15 for the first, 2.38 ± 0.055 for the second.

Going from ISKRKEELEEEFRKKLK [YIL149C/MLP2] to ISLLCKNFKGIEEIEYN [PCI8], the protein stability index falls from 3.67 ± 0.11 to 3.01 ± 0.061.

ISLVDDIINAVNEIMYK [MTW1] and ISRERDLFTHLWNQWLK [SRP68] are within error of each other in protein stability index: 3.1 ± 0.095 for the first, 2.93 ± 0.11 for the second.

Going from ISRNGDTSYKIDGKTVS [SMC1] to ISSSAIPYSRNAPAWFK [RPS13], the protein stability index falls from 3.29 ± 0.081 to 2.37 ± 0.063.

Going from ISTLFQRDRHTLAYDRG [PRP8] to ISWCSLSETNGLHKFVK [PRE10], the protein stability index falls from 2.79 ± 0.058 to 2.44 ± 0.11.

Compared with ITGEDEVLCSRIIEKSV [RRP45], ITHNTNITDNLFQELSK [GRR1] is higher in protein stability index: 1.89 ± 0.059 for the first, 3.18 ± 0.16 for the second.

Compared with ITLLPSSLKESSPDTMK [SNF12], ITQMRVNDEEEHKQLVA [RPC82] is higher in protein stability index: 2.27 ± 0.25 for the first, 3.34 ± 0.16 for the second.

First: ITRLCQTLGLESFTEEL [MED1]
Second: ITRSVMRFNIEIIADWI [BRR2]
The protein stability index of the first is lower: 2.51 ± 0.056 for the first, 3.16 ± 0.065 for the second.

First: IVAKYDPPIIIFINYKQ [PRP28]
Second: IVAQSEVEVSTRDLFDL [RPO31]
The protein stability index of the first is lower: 1.96 ± 0.048 for the first, 3.2 ± 0.067 for the second.

First: IVDDYWESLAKKQNLSS [SWP82]
Second: IVEQDKSMELFYDIRSL [YJL039C/NUP192]
The protein stability index of the first is lower: 2.96 ± 0.059 for the first, 3.16 ± 0.082 for the second.

In the case of IVHHPYQSLKQIVQVLK [SSN8], the protein stability index is reported as 1.25 ± 0.072.

— the supplement of paper PMC9732359
